Laboratory results as given in patent US20240254204A1 (published 2024).
Residue numbers refer to the chain shown, from its start.

B1: F5 (antibody, V domains shown)
VH: QVQLQESGPGLVKPSETLSLTCTVSGGSIIGYYWSWIRQPPGKGLEWIGYIYFSANTNYNPSLKSRVTMSVDMSKKQFSLKLRSVTAADTAVYYCARGGGYLETGPLDFWGQGILVTVSS
VL: DIVMTQSPLSLPVTPGEPASISCRSSQSLMQLNGYNYLAWYLQRPGQSPQLLIYLGSTRASGVPDRFSGSGSGTDFTLKITRVEAEDVGVYYCMQGLQIPGTFGQGTRLEIK
B2: Antibody 13 (SS6V13-F1) (antibody, V domains shown)
VH: QVQLQESGPGLVKPSETLSLTCSVSGVSILGSYWGWIRQPPGTGLQWIGYIYFSENTNYNPSLQSRVTMSLDTSKNLLSLKLSSVTAADTAVYYCARGGGYLETGPFDSWGQGTLVTVSS
VL: B1 VL with S28G, M30V, L32S, R44K, T58N, T81S, I99T
B3: E7 (antibody, V domains shown)
VH: QVQLQESGPGLVKPSETLSLTCTVSGGFIGPHYWSWVRQPPGKGLEWIGYIYISGSTNYNPSLKSRLTISVDMSKSQFSLTLSSATAADTAVYYCARGGGYLETGPFEYWGQGTLVTVSS
VL: B1 VL with M30L, L32N, R44K, G56S, T81S, G96S
B4: Antibody 11 (SS6V11-E7) (antibody, V domains shown)
VH: B3 VH
VL: B1 VL with M30L, L32N, R44K, G56S, T81S, G96S
B5: F1 (antibody, V domains shown)
VH: B2 VH
VL: B1 VL with S28G, M30V, L32S, R44K, T58N, T81S, I99T
B6: Antibody 20 (SS6V20-F5) (antibody, V domains shown)
VH: B1 VH
VL: B1 VL

Tests used:
SARS-CoV-2 Lambda = SARS-CoV-2 Lambda (SARS-CoV-2 Lambda)
Bat CoV Rs2018B = Bat CoV Rs2018B (SC1r-CoV Rs2018B)
Bat CoV WIV-1 = Bat CoV WIV-1 (SC1r-CoV WIV-1)
Bat CoV RsSHC014 = Bat CoV RsSHC014 (SC1r-CoV RsSHC014)
SARS-COV-2 B.1.351 RBD = SARS-COV-2 B.1.351 RBD (SARS-CoV-2 B.1.351 (Beta))
[1] = target: SARS-COV-2 Omicron BA.2 RBD (SARS-CoV-2 Omicron BA.2)
SC2r-COV RaTG13 RBD = SC2r-COV RaTG13 RBD (SC2r-CoV RaTG13 (bat))
[2] = target: SARS-COV-2 Omicron BA.1 RBD (SARS-CoV-2 Omicron BA.1)

Binder | IC50 (SARS-CoV-2 Delta Plus) [mg/L] | IC50 (SARS-CoV-2 Lambda) [mg/L] | IC50 (Bat CoV Rs2018B) [mg/L] | IC50 (SARS-CoV-2 Delta) [mg/L] | IC50 (Bat CoV LYRa11) [mg/L] | IC50 (Bat CoV WIV-1) [mg/L] | IC50 (Pangolin CoV GD-1) [mg/L] | IC50 (SARS-CoV-1) [mg/L] | IC50 (Pangolin CoV GX-) [mg/L] | IC50 (Bat CoV RsSHC014) [mg/L] | IC50 (SARS-COV-2 B.1.351 RBD) [mg/L] | IC50 [1] [mg/L] | further results
B1 | 0.03 | 0.014 | 0.015 | 0.034 | 0.01 | 0.012 | 0.019 | 0.019 | 0.025 | 0.012 |  |  | IC50 (SARS-CoV-2): 0.03 mg/L; IC50 (Bat CoV BANAL-236): 0.033 mg/L; IC50 (SARS-CoV-2 Mu): 0.024 mg/L; IC50 (Bat CoV BANAL-52): 0.027 mg/L
B2 |  |  |  |  |  |  |  |  |  |  | 0.087 |  | 
B3 |  | 0.032 | 0.032 | 0.097 | 0.021 | 0.03 | 0.073 |  | 0.039 | 0.022 |  |  | 
B4 |  |  |  |  |  |  |  |  |  |  | 0.044 | 0.222 | 
B5 | 0.112 |  |  | 0.12 | 0.031 | 0.037 |  | 0.073 |  |  |  |  | IC50 (SARS-CoV-2 Gamma): 0.082 mg/L
B6 |  |  |  |  |  |  |  |  |  |  |  | 0.246 | IC50 (SC2r-COV RaTG13 RBD): 0.015 mg/L; IC50 [2]: 0.072 mg/L
